The series can be described thus: yeast display, Sf9 membrane polyspecificity reagent, FACS + sequencing; frameworks hold sequencing errors. The method, boiled down:
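Galactose induction of a Saccharomyces cerevisiae BJ5465 synthetic nanobody display library ran 36–48 hours. The cells were then stained for 1 hour at 4 °C with 10% biotinylated, detergent-solubilized Sf9 membrane reagent, pulled down on streptavidin microbeads and FACS-sorted into low and high (top ~1%) gates on expression and reagent-binding fluorescence. Labels for polyreactivity follow the gate of origin.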
As for “QVQLVDSGGGLVQAGGSLRLSCAASGSTFRLYAMGWYRQAPGKERELVAAISQRGGSTYYADSVKGRFTISRDNAKNTVYLQKNSLKPEDTAVYYCNTDWYRKWGKPYYYWGQGTQVTVSS”, the “polyreactivity (PSR sort gate)” value was “high polyreactivity”. For the sequence “QVQLVDSGGGLVQAGGSLRLSCAASGSTFVPNAMGWYRQAPGKERELVASITSDGGTYYADSVKGRFTISRDNAKNTVYLQMNSLKPEDTAVYYCAADDNGVWVISYWWFDYWGQGTQVTVSS”, the “polyreactivity (PSR sort gate)” value is given as “high polyreactivity”. The entry for “QVQLVDSGGGLVQAGGSLRLSCAASGSTLGENAMGWYRQAPGKERELVSAIRQSSGRTYYADSVKGRFTISRDNAKNTVYLQMNSLKPEDTAVYYCANYYWGQGTQVTVST” is “low polyreactivity”.

For “QVQLVDSGGGLVQAGGSLRLSCAASGYIFGDYVMGWYRQAPGKERELVASISSSGDTNYADSVKGRFTISRDNAMNTVYLQMNSLKPEDTAVYYCAAVDWIGRVHGKPWGGDYWGQGTQVTVSS”, the “polyreactivity (PSR sort gate)” value is “low polyreactivity”. As for “QVQLVDSGGGLVQAGGSLRLSCAASGYTILSYVMGWNRQAPGKERELVAAIRRSGGSTYYADSVKGRFTISRDNAKNTVYLQMNSLKPEDTAVYYCNAPHHRYDWGQGTQVTVSS”, the entry is “high polyreactivity”. As for “QVQLVDSGGGLVQAGGSLRLSCAPSGSTFGYNAMGWYRQAPGKERELVAAITWSGGSTYYADSVKGRFTISRDNAKNTVYLQMNSLKPEDTAVYYCAADDWYNSKWHYYSWGQGTQLTVSS”, the entry is “low polyreactivity”; as for “QVQLVDSGGGLVQAGGSLRLSCASSGRIFSEYAMGWYRQAPGKERELVAAISRRGGRTYYADSVKGRFTISRDNAKNTVYLQMNSLKPEDTAVYYCAADHGDPGGYDYWGQGTQVTVSS”, “high polyreactivity”. The entry for “QVQLVDSGGGLVQAGGSLRLSCASSGRIFTKYSMGLYRQAPGKERELVAGISGSGTITYYADSVKGRFTISRDNAKNTVYLQMNSLKPVDSAVYYCNAGRVTNRTPRYDYWGQGTQVSVSS” is “high polyreactivity”. For “QVQLVDSGGGLVQAGGSLRLSCDASGLIFRYYTMGWYRQAPGKERELVATITKSGSSTYYADSVKGRFTISRDNAKNTVYLQMNSLKPEDTAVYYCAARAYPSSPRGVYAYYYWGQGTQVTVSS”, the “polyreactivity (PSR sort gate)” value is listed as “high polyreactivity”.

Take “QVQLVDSGGGLVQAGGSLRLSCDASGSIFYPYALGCYIQAPGKERELVAAITTSGGSTYYADSVKGRFTISRDNAKNTVYLQMNSLKPEATAVYYCSASYYSDIWPYSVYDLEFYWGQGTQVTVSS”: the “polyreactivity (PSR sort gate)” value was “high polyreactivity”. With “QVQLVDSGGGLVQAGGSLRLSCPASGFTFVIYAMGWYRQEPGKESELVAAIRSGGRTYYADSVKGRFTISRDNAKNTVYLQMNSLKPEDTAVYYCAAVPDLKWFGYEYWGQGTQVTVSS”, the “polyreactivity (PSR sort gate)” value was “high polyreactivity”.

For “QVQLVDSGGGLVQAGGSLRLSCPASGIIIARNTMGWYRQAPGKERELVAAISTRGTTTYYADSVKGRFTISRDNAKNTVYLQMNSLKPEDTAVYSCAAFRVHTDRYNYWGQGTQVTVSS”, the “polyreactivity (PSR sort gate)” value is “high polyreactivity”. The entry for “QVQLVDSGGGLVQAGGSLRLSCPASGRIFSWYAMGWYRQAPGKERELVATISSTGGSTYYADSVKGRFTISRDNAKNTVYLQMNSLKAEHTAVYYCNAVVYGIFLYAWYDYWGQGTQVTVSS” is “low polyreactivity”; for “QVQLVDSGGGLVQAGGSLRLSCPASGSTIAWYDMGWYRQEPGKEREFVAAIDYGGGSTYADSVKGRFTISRDNAKNTVYLQMNSLKPDDTAVYYCNADYWVYLYDYWGQGTLVTVSS” it is “low polyreactivity”.

As to “QVQLVDSGGGLVQAGGSLRLSCSASGYTFALYSMGWYRQAPGKERELVADINIGGASTYYADSVKGRFTISRDNAKNTVYLQMNSLKPEDTAVYYCAKEYYDGYFPTFDYDYWGQGTQVTVSS”, the “polyreactivity (PSR sort gate)” value was “low polyreactivity”. As for “QVQLVDSGGGLVQAGGSLSLSCADSGFIFRAYEMGSYRQAPGNERALVAAISGSGGRTYYSDSVNGRFTISRDNAKNTVYLQKNSLKPEDTAVYYGKADFHYSIPGHAFATVYYWGQGTQVTVSS”, the entry is “low polyreactivity”. As for “QVQLVDSGGGLVQAGGTLRLSCAASGSTFRYYAMGWYRQAPGKERELVAAISWNGGRTYYADSVKGRFTISRDNAKNTVYLQMNSLKPEDSAVYYCDAVHYVAYYGYDFWGQGTQVTVSS”, the entry is “high polyreactivity”; as for “QVQLVDSGGGLVQAGVRLRLSCAASGNIFSAYAMGWYRQAPGKERELVASIDWNGGRTYYADSVKGRFTISRDNAKNTVYLQMNSLKPEDTAVYYCNAGYSYRKYDYLGQGTQVTVSS”, “high polyreactivity”. As for “QVQLVDSGGGLVQAGVSLRISCAASGSTFYANAMGWYRQAPGKERELVATITSSGTSTYYGDSVKGRFTISRDNAKNTFYLQMNSLKPEDIAVYYCAAEYSLLYWEFDYWGQGTQVTVSS”, the entry is “low polyreactivity”; as for “QVQLVDSGGGLVQEGGRLRLSCAASGSIYDQYDMGWYRQAPGKERELVAAISNRGGCTYYADSVKGRFTISRDNAKNTVYLQMNSLKPEDTAVYYCAARKYWGYGTRYFYWGQGTQVTVSS”, “high polyreactivity”; as for “QVQLVDSGGGLVQEGGSLRLRCAASGYTFDWYAMGWYRQAPGKERELVAAINSGGGTYYADSVKGRFTISRDNAKNSVYLQMNSLKPEDTAVYYCAKYTYDYWGQGTQVTVSS”, “low polyreactivity”. Regarding “QVQLVDSGGGLVQEGGSLRLSCAASGRIFWYYDMGWYRQAPGKERELVAAISQRGGSTYYADSVKGRFTISRDNAKNTVYLQMNSLKPEDTAVYYCAKRNPYWATREYWGQGTQVTVSS”, the “polyreactivity (PSR sort gate)” value was “high polyreactivity”. As to “QVQLVDSGVGLVQAGGRLRLSCAASGRIFPFNAMGWYRQSPGKERELVAAITSSGGRTYYADSVKGRFTISRDNAKNTVYLQMNSLKPVDTAVYYCAATLVRRARSGPMGYWGQGTQVTVSS”, the “polyreactivity (PSR sort gate)” value is “high polyreactivity”. As for “QVQLVDSRGGLVQAGGSLRLSCAASGNTFGFNAMGWNRQARGKERHLVAAITWSVGRTYYADSVKRRFTISRDHAKNTVYLEMNSLKPEDTAVYYCAKDFEAGDDYFAYDYWGQGTQVTVSS”, the entry is “low polyreactivity”; as for “QVQLVDSRGGLVQAGGSLRLSCAASGSTFVNYAMGWYRQAPGKAWELVAAITANGGRTYYADSVKGRFTISRDNAKNTVYLQMNSLKPEDTAVYYCNTESNLYRRRRNYWGQGTQVTVSS”, “low polyreactivity”.

With “QVQLVDSSGGLVQAGGSLSLSCAASGRTFGFYAMGWYIQAPGSERELVASITWRGGRKYYADSEMGSFTISRDNAKNTCYLQMISLKPEDTAVYYCAAAYHPYQGVTGHDGGYDYWGQGTQVTVSS”, the “polyreactivity (PSR sort gate)” value was “low polyreactivity”. As for “QVQLVDSVGGLVQAGGSLSLSCAASGLIFASNAMGWYRQAPGKERELLATIRRGTSTNYADSVKGRFTISRDNAKNTVYLEMNSLKPEDTAVYYCAADGYTYKFDYWGQGTQVTVSS”, the “polyreactivity (PSR sort gate)” value is reported as “low polyreactivity”. Regarding “QVQLVDSWGGLVQAGGSLRLSCAASGRTSRYAMGWYRQAPGKERELVAAITSSGGRTYYADSVKGRFTISRDNAKNTVYLQMNSLKPEDTAVYYCAAGYLLWRTWDYAAGHNYWGQGTQVTVSS”, the “polyreactivity (PSR sort gate)” value is “high polyreactivity”. On to “QVQLVDTGGGLVQAGGSLRLICAASGLTFSYNAMGWYRQAPGKERELVAAITVSGGRTYYADSVKGRFTISRDNAKNTVYLQMNSLKAEDTAVYYCNADYDEGYYGYLRYDYDYWGQGTQVTVSS”, for which the “polyreactivity (PSR sort gate)” value is given as “high polyreactivity”.

On to “QVQLVDTGGGLVQAGGSLRLSCAASGFTFRWYAMGWYRQAPGKERELVAAISWRGGSTYYADSVKGRFTISRDNAKTTVYLQMNSLKPEDTAVYYCAALRYWISLSSYEYWGQGTQVTVSS”, for which the “polyreactivity (PSR sort gate)” value was “high polyreactivity”. The entry for “QVQLVDTGGGLVQAGGSLRLSCAASGSIFHNNSRGWYRQATGKERELVAAIRRSGGSTSYADSVKGRFTISLDNAKNTVYLQMNSLKPEDTAVYYCNKRFVRFSPEYGYWGQGNQVTVSS” is “low polyreactivity”; for “QVQLVDTGGGLVQAGGSLRLSCSASGSIFEGYAMGWYRKAPGKERELVARITSDDDSTYYADSVKGRFTISRDKEKNTVYLQMNSLKAEDTAVYYCNADYYWTSLAMDSWGQGTQVTVSS” it is “low polyreactivity”. As for “QVQLVEAGGGLVKAGGSLRLSCAASGYIFRFYALGWYRQAPGKERELVAAISRSGSRTYYADSVKGRFTISRDNAKNTVYLQMNSLKPEDTAVYYCAAVTRGLRFDYWGQGTQVTVSS”, the entry is “high polyreactivity”; as for “QVQLVEAGGGLVQAGGSLRLCCAASGSTFVHYAMGWYRQAPGKERELVAAITTSGTGTFYADSVKGRFTISRENAKNNVYLQMNSLKPEETAVNYCAADIYPVWIYLLYVYWGQGTQVTVSS”, “low polyreactivity”; as for “QVQLVEAGGGLVQAGGSLRLSCAACGSIFISYAMGWYRQAPGKERELVAAISSGGSTNYADSVKGRFTISRDNAKNTVYLQMNSLTPEDTAVYYCAADGWLWSFTGDGWWFDYWGQGTQVTVSS”, “low polyreactivity”. The entry for “QVQLVEAGGGLVQAGGSLRLSCAASGITYSKYANGWYIQAPWKERELVAAISQRGGSTYYADSVKGRFTISRDNAKNTVYLQMNSLKPEDTAVYYCNAEFYWSIIAYEYWGQGTQVTVSS” is “high polyreactivity”; for “QVQLVEAGGGLVQAGGSLRLSCAASGLIFWAYAMGWYRQAPGKERELVAAINWRGGSTYYADSVKGRFTISRDNAKNTVDLQMNSLKPEDTAVYYCADDSYYDEYDYLGQGTQVTVSS” it is “low polyreactivity”; for “QVQLVEAGGGLVQAGGSLRLSCAASGRIFGRYVMGWYRQAPGKERELVASISTRRGRTYYADSVKGRFTSSRDNAKNTVYLQMNSLKPEDTAVYYCATAYSSHYGIHRRYEYWGQGTQVTVSS” it is “high polyreactivity”.

For “QVQLVEAGGGLVQAGGSLRLSCAASGRTFRWYAMGWYRQAPGKERELVAAITIGGASTYYADSVKGRFTISRDNAKNTVYLQMNSLQPEYTAVNYCNAVFVGNDYWGQGTLVTVSS”, the “polyreactivity (PSR sort gate)” value was “low polyreactivity”.

“QVQLVEAGGGLVQAGGSLRLSCAASGSIFGSYAMGWYRQAPGKERELVAAISGSGGRTYYADSVKGRFTISRDNAKISVYLQMNSLKPDDTAVYYCAAAYPRVTYNYGYYWGQGTQVTVSS”: the “polyreactivity (PSR sort gate)” value is “high polyreactivity”.

In the case of “QVQLVEAGGGLVQAGGSLRLSCAASGSIFKSYAMGRYRQAPGKEREFVASITKSGGTTYYADSVKGRFTISRDHAKNTVYLQMNSLKPEDTAVYYCAADWYRSSWTYNYLGQGTQVTVSS”, the “polyreactivity (PSR sort gate)” value is on record as “low polyreactivity”.
